Reference: paper PMC10923064

Assays:
[1] = target: T1, human RPA (RPA70/RPA32/RPA14) (human, UniProt P27694;P15927;P35244 1-616;1-270;1-121); assay: fluorescence anisotropy
[2] = target: T1, human RPA (RPA70/RPA32/RPA14); assay: stopped-flow Trp fluorescence

T1 sequence (P27694 whole entry, chain 1 of 3): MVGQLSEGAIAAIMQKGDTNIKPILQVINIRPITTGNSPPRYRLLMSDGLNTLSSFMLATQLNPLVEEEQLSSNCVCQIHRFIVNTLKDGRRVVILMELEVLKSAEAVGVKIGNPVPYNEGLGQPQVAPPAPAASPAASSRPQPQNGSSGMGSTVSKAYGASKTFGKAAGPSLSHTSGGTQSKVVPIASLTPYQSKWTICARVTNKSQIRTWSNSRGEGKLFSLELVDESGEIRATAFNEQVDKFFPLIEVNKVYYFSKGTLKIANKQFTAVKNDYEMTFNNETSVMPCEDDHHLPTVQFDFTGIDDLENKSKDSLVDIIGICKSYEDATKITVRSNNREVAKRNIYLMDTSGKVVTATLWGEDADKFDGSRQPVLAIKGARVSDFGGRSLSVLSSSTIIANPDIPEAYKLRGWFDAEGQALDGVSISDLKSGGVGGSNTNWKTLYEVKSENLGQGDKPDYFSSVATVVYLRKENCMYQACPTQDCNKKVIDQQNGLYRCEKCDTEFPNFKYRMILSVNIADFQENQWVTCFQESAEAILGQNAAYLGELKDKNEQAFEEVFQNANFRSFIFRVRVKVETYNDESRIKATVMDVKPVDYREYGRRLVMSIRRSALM
T1 sequence (P15927 whole entry, chain 2 of 3): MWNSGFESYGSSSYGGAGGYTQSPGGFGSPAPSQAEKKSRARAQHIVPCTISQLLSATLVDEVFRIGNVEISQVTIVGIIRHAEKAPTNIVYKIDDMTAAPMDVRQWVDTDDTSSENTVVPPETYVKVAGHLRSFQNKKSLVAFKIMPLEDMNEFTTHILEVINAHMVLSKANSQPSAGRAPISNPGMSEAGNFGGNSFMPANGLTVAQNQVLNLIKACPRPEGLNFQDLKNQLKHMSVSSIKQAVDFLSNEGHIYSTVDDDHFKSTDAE
T1 sequence (P35244 whole entry, chain 3 of 3): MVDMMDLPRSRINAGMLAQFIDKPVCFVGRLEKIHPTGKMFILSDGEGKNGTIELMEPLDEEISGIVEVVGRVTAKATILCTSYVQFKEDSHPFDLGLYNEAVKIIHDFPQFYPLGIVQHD

TTTTTTTTTTTTTTTTTTTTTTTTTTTTTTTTTTT (ssDNA) [5'-FAM-(dT)35]: binds [1].

TTTTTTTTTTTTTTTTTTTTTTTTTTTTTTTTTTT (ssDNA) [(dT)35]: binds [2].
